# Data: patent publication US20230019513A1
# Biological target: murine Protein S (mouse) (UniProt Q08761)
# Assay: cell-based or functional assay
# UniProt Q08761, sequence (Q08761 42-675): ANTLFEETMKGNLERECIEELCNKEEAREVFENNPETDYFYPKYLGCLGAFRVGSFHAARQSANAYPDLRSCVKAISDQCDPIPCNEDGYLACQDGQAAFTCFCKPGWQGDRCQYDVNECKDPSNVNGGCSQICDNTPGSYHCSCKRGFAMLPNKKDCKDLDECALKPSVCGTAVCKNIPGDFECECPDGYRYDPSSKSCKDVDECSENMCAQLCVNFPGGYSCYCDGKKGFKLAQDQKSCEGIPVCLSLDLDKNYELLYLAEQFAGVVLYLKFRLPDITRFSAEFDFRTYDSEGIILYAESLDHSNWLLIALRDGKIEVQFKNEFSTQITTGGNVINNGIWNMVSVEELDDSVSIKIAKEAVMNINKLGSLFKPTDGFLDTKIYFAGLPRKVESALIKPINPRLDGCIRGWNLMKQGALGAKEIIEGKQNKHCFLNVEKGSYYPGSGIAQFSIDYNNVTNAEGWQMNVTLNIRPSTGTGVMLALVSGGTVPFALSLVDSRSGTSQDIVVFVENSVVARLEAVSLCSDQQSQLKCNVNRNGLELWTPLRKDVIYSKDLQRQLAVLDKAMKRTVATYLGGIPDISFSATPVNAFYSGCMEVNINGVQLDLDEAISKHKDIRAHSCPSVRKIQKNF
row,reduction of ETP in Ca2+ ionophore-activated PRP of WT mice at 8 nM APC [%],Substance
1,90,wild type recombinant mouse APC (wt-rmAPC) (from UniProt P33587 42-460) (enzyme)
2,30,mutated recombinant mouse APC (rmAPC L38D) (from UniProt P33587 42-460) (enzyme)
